Reference: article PMC7643160, “An ambruticin-sensing complex modulates Myxococcus xanthus development and mediates myxobacterial interspecies communication” (Nature Communications, 2020)

T1: AskC (hybrid histidine kinase, MXAN_6734) (Myxococcus xanthus, UniProt Q1CXM2)
T1 construct: C-terminally His6-tagged AskC
T1 sequence (Q1CXM2 1-671): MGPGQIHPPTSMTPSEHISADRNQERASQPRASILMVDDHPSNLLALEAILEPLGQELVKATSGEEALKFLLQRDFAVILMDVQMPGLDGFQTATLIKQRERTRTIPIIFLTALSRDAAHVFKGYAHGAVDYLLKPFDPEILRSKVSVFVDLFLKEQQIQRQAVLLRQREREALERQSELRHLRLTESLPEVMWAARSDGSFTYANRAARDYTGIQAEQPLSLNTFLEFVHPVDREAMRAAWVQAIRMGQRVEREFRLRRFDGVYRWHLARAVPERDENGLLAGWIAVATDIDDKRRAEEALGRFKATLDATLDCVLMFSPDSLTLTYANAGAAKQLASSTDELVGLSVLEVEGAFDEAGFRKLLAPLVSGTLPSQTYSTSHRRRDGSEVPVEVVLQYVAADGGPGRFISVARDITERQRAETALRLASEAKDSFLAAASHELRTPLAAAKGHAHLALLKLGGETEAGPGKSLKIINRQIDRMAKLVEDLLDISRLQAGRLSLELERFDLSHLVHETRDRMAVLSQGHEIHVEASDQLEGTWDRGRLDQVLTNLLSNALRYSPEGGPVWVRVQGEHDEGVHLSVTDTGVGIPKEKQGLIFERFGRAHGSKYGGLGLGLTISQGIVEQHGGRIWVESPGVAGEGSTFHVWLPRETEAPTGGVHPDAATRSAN

B1: MrpC, transcriptional regulator of development (natural protein)
chain: MHGFNRPLGPIGSNVVAPLQTTSSGMMVTANKLVPGQEAIDFKGYFKVESFPHNSTIYRPGDNTDRVYLLKSGRVRLMRIGKNSTRSVVSILRPGDLFGELFRPEGTPIEEMAIAAGEAEVWSIEGRDFRAQLEARPALAVDVVRAYAERVRALRKRVLGLTFKEVPARLADTLLTLVEAHGERCPHGGETDLRGITQQDLADLVGASRSFVSTLINEMKREGVLGNVGRILCVRDQKALRKIAGKEK
B2: FruA, transcriptional regulator of development (natural protein)
chain: MATNQAAIRVSILEGPWAAWQGLADGLRGEGVQVSSVTRDVRLFLDSLGTDPPQVAVMDVEGDSEAAVGCSVTEGINLLREARKRRLEVRMLLLSAVSTPEIISQCFDEGASGYLFRAGLGTTAVASAINSLVRGERLFPVQLLRNDFEHPPVTSPTASVLLALTQREREVLAYVAGGADNLKIAAHLQIAERTVKSHVTQLYRKLGAENRTQLALRACHLGVRPPPDL

Legend:
[1] = system: MrpC (Myxococcus xanthus DK1622); experiment: EMSA; conditions: EMSA: 25 mM K-acetate, 8 mM MgSO4, 0.1 mM DTT, 15 mM Tris-HCl pH 7.3, 8% glycerol, 250 ng poly-dIdC, 200 fmol DNA, 15 ul, 30 C 30 min. Pull-down (purified): …
[2] = target: AskA (ambruticin sensor kinase A, MXAN_0712), hybrid histidine kinase (Myxococcus xanthus); experiment: MST + SPR; average of the KD values from MST and from SPR (mean KD of Table 1)
AskA (ambruticin sensor kinase A, MXAN_0712), hybrid histidine kinase (Myxococcus xanthus), sequence (main, as listed by the source): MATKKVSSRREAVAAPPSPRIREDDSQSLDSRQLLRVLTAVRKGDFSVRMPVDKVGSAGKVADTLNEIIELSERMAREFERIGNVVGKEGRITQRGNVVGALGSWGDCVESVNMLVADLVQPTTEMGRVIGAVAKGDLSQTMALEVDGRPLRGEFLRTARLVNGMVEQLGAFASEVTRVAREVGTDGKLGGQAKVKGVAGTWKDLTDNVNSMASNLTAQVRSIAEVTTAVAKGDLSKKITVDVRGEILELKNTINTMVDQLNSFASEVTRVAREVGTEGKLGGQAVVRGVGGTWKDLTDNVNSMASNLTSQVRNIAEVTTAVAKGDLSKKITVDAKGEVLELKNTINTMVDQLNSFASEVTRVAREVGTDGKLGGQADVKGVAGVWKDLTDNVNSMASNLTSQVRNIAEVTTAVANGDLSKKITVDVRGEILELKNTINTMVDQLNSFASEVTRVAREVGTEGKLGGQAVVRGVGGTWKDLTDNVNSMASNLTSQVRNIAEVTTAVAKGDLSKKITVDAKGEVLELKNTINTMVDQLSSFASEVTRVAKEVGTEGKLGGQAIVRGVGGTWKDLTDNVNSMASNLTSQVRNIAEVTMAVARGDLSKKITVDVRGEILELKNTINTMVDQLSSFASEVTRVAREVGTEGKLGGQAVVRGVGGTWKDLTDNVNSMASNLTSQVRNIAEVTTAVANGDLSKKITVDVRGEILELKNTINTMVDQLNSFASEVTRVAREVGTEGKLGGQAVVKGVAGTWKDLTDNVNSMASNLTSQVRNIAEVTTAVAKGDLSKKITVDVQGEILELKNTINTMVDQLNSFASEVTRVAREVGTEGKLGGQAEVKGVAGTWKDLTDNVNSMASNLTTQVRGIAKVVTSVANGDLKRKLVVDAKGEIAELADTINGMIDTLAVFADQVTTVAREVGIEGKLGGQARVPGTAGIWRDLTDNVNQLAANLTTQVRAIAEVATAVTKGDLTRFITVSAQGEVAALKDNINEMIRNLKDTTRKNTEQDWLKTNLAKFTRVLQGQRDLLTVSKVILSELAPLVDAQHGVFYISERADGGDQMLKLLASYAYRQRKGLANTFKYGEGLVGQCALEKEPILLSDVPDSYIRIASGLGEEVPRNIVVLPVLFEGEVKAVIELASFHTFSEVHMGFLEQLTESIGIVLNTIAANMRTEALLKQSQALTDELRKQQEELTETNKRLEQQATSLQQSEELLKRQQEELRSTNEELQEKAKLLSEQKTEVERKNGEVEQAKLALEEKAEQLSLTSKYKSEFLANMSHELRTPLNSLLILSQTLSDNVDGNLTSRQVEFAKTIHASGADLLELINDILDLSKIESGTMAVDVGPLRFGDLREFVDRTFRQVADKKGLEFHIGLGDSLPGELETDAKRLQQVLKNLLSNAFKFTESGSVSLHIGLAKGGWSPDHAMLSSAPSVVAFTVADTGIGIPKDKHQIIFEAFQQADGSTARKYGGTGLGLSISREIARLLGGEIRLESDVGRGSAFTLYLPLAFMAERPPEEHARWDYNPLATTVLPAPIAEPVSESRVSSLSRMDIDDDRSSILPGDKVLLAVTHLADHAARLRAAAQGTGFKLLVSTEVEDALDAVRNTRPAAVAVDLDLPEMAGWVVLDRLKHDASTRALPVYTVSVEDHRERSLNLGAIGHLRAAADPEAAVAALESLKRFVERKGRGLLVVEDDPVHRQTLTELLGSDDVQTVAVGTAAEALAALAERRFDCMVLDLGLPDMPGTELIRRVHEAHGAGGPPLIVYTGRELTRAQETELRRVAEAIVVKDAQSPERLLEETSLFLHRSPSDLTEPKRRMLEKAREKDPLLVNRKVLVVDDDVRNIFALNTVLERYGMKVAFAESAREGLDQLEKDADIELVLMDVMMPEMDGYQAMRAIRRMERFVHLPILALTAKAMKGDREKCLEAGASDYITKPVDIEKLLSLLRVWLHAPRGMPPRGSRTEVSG

[3] = target: AskB (ambruticin sensor kinase B, MXAN_6735), hybrid histidine kinase (Myxococcus xanthus); experiment: as above
AskB (ambruticin sensor kinase B, MXAN_6735), hybrid histidine kinase (Myxococcus xanthus), sequence (main, as listed by the source): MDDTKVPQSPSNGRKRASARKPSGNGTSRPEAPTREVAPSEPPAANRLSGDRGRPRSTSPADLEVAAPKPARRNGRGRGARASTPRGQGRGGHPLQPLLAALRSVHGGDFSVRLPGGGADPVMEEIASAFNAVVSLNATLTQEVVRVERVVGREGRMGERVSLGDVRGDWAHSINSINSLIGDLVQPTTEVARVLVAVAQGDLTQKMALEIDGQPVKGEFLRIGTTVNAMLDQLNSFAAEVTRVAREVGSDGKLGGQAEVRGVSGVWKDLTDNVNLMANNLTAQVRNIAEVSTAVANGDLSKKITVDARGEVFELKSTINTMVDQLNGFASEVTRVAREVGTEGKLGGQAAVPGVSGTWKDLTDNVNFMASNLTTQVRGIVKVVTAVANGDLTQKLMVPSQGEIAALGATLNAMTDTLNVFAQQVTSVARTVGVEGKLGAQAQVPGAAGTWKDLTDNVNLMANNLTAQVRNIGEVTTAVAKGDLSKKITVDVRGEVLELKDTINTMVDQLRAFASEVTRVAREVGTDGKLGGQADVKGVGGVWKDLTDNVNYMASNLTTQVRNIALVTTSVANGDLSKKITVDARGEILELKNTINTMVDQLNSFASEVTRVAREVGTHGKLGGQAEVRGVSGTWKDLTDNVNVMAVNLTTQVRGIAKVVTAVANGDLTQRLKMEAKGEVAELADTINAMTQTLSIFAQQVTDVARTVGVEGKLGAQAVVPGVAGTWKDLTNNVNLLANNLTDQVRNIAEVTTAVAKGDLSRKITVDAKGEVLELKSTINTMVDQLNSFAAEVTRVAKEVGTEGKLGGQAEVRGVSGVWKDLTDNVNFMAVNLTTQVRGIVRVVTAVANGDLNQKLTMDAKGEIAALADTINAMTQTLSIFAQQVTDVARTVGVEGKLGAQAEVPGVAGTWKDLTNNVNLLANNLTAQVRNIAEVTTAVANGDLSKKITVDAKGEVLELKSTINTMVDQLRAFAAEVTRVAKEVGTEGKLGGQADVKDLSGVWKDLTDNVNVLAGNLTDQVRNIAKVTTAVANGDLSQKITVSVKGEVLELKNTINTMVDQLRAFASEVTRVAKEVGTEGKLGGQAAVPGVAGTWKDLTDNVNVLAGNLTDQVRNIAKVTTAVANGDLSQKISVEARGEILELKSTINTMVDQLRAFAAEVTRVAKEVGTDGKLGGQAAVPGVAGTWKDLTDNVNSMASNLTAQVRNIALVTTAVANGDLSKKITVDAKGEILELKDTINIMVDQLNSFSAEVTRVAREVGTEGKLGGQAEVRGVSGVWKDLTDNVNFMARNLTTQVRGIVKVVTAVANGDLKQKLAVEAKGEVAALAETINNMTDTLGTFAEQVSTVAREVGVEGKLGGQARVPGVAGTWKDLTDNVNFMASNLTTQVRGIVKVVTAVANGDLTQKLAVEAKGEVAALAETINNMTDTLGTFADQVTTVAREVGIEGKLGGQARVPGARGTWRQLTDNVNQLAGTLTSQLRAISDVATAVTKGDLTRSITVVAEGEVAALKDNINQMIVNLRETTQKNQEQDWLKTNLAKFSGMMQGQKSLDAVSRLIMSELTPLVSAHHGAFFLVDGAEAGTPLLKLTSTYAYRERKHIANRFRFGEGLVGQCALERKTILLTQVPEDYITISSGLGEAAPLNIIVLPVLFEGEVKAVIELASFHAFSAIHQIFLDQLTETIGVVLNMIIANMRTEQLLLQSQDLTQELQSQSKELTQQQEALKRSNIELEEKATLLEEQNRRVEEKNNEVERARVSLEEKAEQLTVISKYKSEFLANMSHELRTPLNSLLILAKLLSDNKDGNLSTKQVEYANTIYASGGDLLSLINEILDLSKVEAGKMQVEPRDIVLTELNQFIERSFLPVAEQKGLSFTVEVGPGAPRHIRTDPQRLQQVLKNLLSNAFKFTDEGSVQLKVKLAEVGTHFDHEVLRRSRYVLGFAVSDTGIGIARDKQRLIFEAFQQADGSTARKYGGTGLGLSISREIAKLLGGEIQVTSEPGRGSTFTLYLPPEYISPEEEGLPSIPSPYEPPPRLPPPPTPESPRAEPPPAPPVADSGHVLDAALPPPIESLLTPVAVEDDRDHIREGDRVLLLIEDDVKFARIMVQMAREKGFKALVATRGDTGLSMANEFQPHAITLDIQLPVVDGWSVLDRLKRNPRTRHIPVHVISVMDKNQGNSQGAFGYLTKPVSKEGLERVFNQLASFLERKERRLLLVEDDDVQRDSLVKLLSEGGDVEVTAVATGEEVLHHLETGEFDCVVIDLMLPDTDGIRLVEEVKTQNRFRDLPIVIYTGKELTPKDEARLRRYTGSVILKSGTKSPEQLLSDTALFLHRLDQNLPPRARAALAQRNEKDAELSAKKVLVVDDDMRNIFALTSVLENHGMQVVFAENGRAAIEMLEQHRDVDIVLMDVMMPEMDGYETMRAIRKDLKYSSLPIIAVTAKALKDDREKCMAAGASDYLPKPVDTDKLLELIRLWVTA

[4] = target: AskA (ambruticin sensor kinase A, MXAN_0712), hybrid histidine kinase (Myxococcus xanthus); experiment: SPR; equilibrium analysis on Biacore X100; ligand amine-coupled to a CM5 chip (which partner is not told); analyte in KB1 running buffer, 0.001 to 1000 µM; 25 °C; 1:1 fit; triplicates
[5] = target: AskB (ambruticin sensor kinase B, MXAN_6735), hybrid histidine kinase (Myxococcus xanthus); experiment: as above
[6] = target: AskA (ambruticin sensor kinase A, MXAN_0712), hybrid histidine kinase (Myxococcus xanthus); experiment: MST; NT647-labelled C-terminally His6-tagged AskA, AskB or AskC titrated with serial 1:1 dilutions of non-labelled protein; buffer KB1 (500 mM NaCl, 25 mM HEPES, 0.2% Triton X100, pH 7.4); 25 °C; 40% LED power, 40% MST power; triplicates
[7] = target: AskB (ambruticin sensor kinase B, MXAN_6735), hybrid histidine kinase (Myxococcus xanthus); experiment: as above
[8] = target: T1, AskC (hybrid histidine kinase, MXAN_6734); experiment: MST and SPR with purified protein (KD […] by MST, […] by SPR; mean given); type: binding
[9] = target: AskC (MXAN_6734), hybrid histidine kinase, C-terminally His6-tagged (Myxococcus xanthus); experiment: MST + SPR; average of the KD values from MST and from SPR (mean KD of Table 1)
[10] = target: AskC (MXAN_6734), hybrid histidine kinase, C-terminally His6-tagged (Myxococcus xanthus); experiment: SPR; equilibrium analysis on Biacore X100; ligand amine-coupled to a CM5 chip (which partner is not told); analyte in KB1 running buffer, 0.001 to 1000 µM; 25 °C; 1:1 fit; triplicates
[11] = target: AskC (MXAN_6734), hybrid histidine kinase, C-terminally His6-tagged (Myxococcus xanthus); experiment: MST; NT647-labelled C-terminally His6-tagged AskA, AskB or AskC titrated with serial 1:1 dilutions of non-labelled protein; buffer KB1 (500 mM NaCl, 25 mM HEPES, 0.2% Triton X100, pH 7.4); 25 °C; 40% LED power, 40% MST power; triplicates

Row | Molecule | Kd [1] | mean KD [2] | mean KD [3] | Kd [4] | Kd [5] | Kd [6] | Kd [7] | Kd [8] | mean KD [9] | Kd [10] | Kd [11]
1 | HEX-PmrpC | < 5 nM | – | – | – | – | – | – | – | – | – | –
2 | AskC (MXAN_6734), hybrid histidine kinase, C-terminally His6-tagged (enzyme) | – | 2800 nM | 700 nM | 1400 nM | 400 nM | 4100 nM | 900 nM | – | – | – | –
3 | CCC1OC(/C(C)=C/C(C)/C=C/C2C(C)C2/C=C/C2OC(CC(=O)O)CC(N(C)C)C2O)CC=C1C (centres unmarked) [ambVS3, ambruticin VS-3] | – | – | – | – | – | – | – | 300000 ± 200000 nM | – | – | –
4 | AskB (ambruticin sensor kinase B, MXAN_6735), hybrid histidine kinase (enzyme) | – | 2800 nM | – | 3000 nM | – | 2300 nM | – | – | – | – | –
5 | B1 | – | 800 nM | 1200 nM | 1000 nM | 300 nM | 500 nM | 2100 nM | – | 1500 nM | 1600 nM | 1400 nM
6 | B2 | – | 1000 nM | 1200 nM | 500 nM | 200 nM | 1400 nM | 2100 nM | – | 1400 nM | 1500 nM | 1300 nM
